Measurements: patent publication US7897732B2, “Antibodies to heparin-binding growth factor (HBGF) polypeptides” (Childrens Hospital Research Foundation, priority 1997, dated 2011)

B1: HBGF-0.8-P2: 10-kDa heparin-binding growth factor; truncated porcine CTGF starting at residue 248 (SEQ ID NO: 2 N-terminus) (protein)
chain: ENIKKGKKCIRTPKISKPVKFELSGCTSVKTYRAKFCGVCTDGRCCTPHRTTTLPVEFKCPDGEVMKKSMMFIKTCACHYNCPGDNDIFESLYYRKMYGDMA
B2: HBGF-0.8-P1: 10-kDa heparin-binding growth factor; N-terminally truncated porcine CTGF starting at residue 247 (SEQ ID NO: 1 N-terminus) (protein)
chain: EENIKKGKKCIRTPKISKPVKFELSGCTSVKTYRAKFCGVCTDGRCCTPHRTTTLPVEFKCPDGEVMKKSMMFIKTCACHYNCPGDNDIFESLYYRKMYGDMA

Key:
Balb/c 3T3 fibroblasts = test: DNA synthesis ([3H]thymidine incorporation) assay in confluent quiescent Balb/c 3T3 cells; format: cell-based
Method: To assess the relative mitogenic capability of HBGFs with IGF-1, EGF, bFGF, and PDGF-AB, DNA synthesis assays on 3T3 cells were performed (Table 4). Biologically active fractions containing the 0.3-0.6 M NaCl eluate from the Bio-Rex column were pooled, diluted 3-fold with 20 mM Tris-HCL (pH 7.4) containing 0.1% CHAPS, passed through a 0.45-μm membrane filter, placed in a siliconized polypropylene vessel, and applied with a peristaltic pump to an EconoPac heparin column (0.7×3.6 cm; Bio-Rad) at 2 ml/min. The heparin column was then washed with 50 ml of 20 mM Tris-HCl buffer, 0.2 M NaCl, 0.1% CHAPS and developed at 1 ml/min with a 40 ml gradient of 0.1-2.0 M NaCl in 20 mM Tris-HCl, 0.1% CHAPS (pH 7.4) using a fast protein liquid chromatography (FPLC) system (Pharmacia Biotech Inc.). Fractions (1 ml) were collected into siliconized tubes during NaCl gradient elution and tested for 3T3 cell mitogenic activity. Column fractions were tested for their ability to stimulate DNA synthesis as measured by [^3H]thymidine incorporation into the DNA of confluent quiescent Balb/c 3T3 cells grown in 200 μl of Dulbecco's modified Eagle's medium, 10% bovine calf serum in 96-well culture plates as described (Kim, G. Y., et al., Biol. Reprod. 52, 561-571 (1995)). Dose-response curves to purified growth factors from ULF were established by assaying each dose in triplicate, with data computed as mean±S.D. Statistical significance of the effects of 1-100 μg/ml porcine heparin (Sigma) on growth factor activity was determined by Students' t test.

[1] = Heparin affinity chromatography (NaCl required for elution); format: binding
Method: Fractions that contained HBGF activity (fractions 16-19 collected after the cation exchange chromatography and heparin affinity chromatography) were pooled, diluted, and subjected to a second cycle of heparin affinity FPLC using a TSK heparin 5PW column. To perform the second heparin affinity purification step, biologically active HBGF fractions containing the 0.8 M NaCl eluate from the EconoPac heparin purification step were pooled, diluted 3-fold with 20 mM Tris-HCl (pH 7.4), and clarified by passage through a 0.2-μm filter. The sample was applied at 2 ml/min to a TSK heparin 5PW column (0.8×7.5 cm; TosoHaas, Philadelphia, Pa.), that was washed and eluted as described above, except that CHAPS was omitted from the buffers and fractions of 0.5 ml were collected. […] HBGF polypeptide was again eluted by 0.8 M NaCl (fractions 31-36), but was resolved as two peaks of mitogenic activity which had distinct heparin binding properties. The activity peaks were termed HGBF-0.8-P1 for fractions 31-34 and HGBF-0.8-P2 for fractions 35 and 36. To assess the relative mitogenic capability of HBGFs with IGF-1, EGF, bFGF, and PDGF-AB, DNA synthesis assays on 3T3 cells were performed (Table 4). Biologically active fractions containing the 0.3-0.6 M NaCl eluate from the Bio-Rex column were pooled, diluted 3-fold with 20 mM Tris-HCL (pH 7.4) containing 0.1% CHAPS, passed through a 0.45-μm membrane filter, placed in a siliconized polypropylene vessel, and applied with a peristaltic pump to an EconoPac heparin column (0.7×3.6 cm; Bio-Rad) at 2 ml/min. The heparin column was then washed with 50 ml of 20 mM Tris-HCl buffer, 0.2 M NaCl, 0.1% CHAPS and developed at 1 ml/min with a 40 ml gradient of 0.1-2.0 M NaCl in 20 mM Tris-HCl, 0.1% CHAPS (pH 7.4) using a fast protein liquid chromatography (FPLC) system (Pharmacia Biotech Inc.). Fractions (1 ml) were collected into siliconized tubes during NaCl gradient elution and tested for 3T3 cell mitogenic activity.

[2] = preparation after C8HPLC (step 1), bioactivity diminished due to acid exposure

| Molecule | ED50: concentration of HBGF-0.8 preparation required to give 50% maximal DNA synthesis (Balb/c 3T3 fibroblasts; [2]) [ng/mL] | ED50: concentration of HBGF-0.8 preparation required to give 50% maximal DNA synthesis (Balb/c 3T3 fibroblasts; preparation after TSK-Hep step) [ng/mL] | NaCl required for elution from a heparin affinity column [1] [M] | ED50: concentration of HBGF-0.8 preparation required to give 50% maximal DNA synthesis (Balb/c 3T3 fibroblasts; preparation after C8HPLC, step 2, bioactivity diminished due to acid exposure) [ng/mL] | Heparin affinity as compared with HBGF-0.8-P2 ([1]; TSK heparin 5PW column) |
| --- | --- | --- | --- | --- | --- |
| B1 | 250 | 417 | 0.8 |  |  |
| B2 | 250 | 2230 | 0.8 | 25 | lower heparin affinity |
